Test results as given in PMC3034218 (Journal of molecular biology, 2004).

B2: τ protein (τ subunit of the clamp-loader), B. subtilis, full-length (natural protein, UniProt P09122 1-563, looked up)
chain: MSYQALYRVFRPQRFEDVVGQEHITKTLQNALLQKKFSHAYLFSGPRGTGKTSAAKIFAKAVNCEHAPVDEPCNECAACKGITNGSISDVIEIDAASNNGVDEIRDIRDKVKFAPSAVTYKVYIIDEVHMLSIGAFNALLKTLEEPPEHCIFILATTEPHKIPLTIISRCQRFDFKRITSQAIVGRMNKIVDAEQLQVEEGSLEIIASAADGGMRDALSLLDQAISFSGDILKVEDALLITGAVSQLYIGKLAKSLHDKNVSDALETLNELLQQGKDPAKLIEDMIFYFRDMLLYKTAPGLEGVLEKVKVDETFRELSEQIPAQALYEMIDILNKSHQEMKWTNHPRIFFEVAVVKICQTSHQSAADLPEVDMLMKKIQQLEQEVERLKTTGIKAAAESPKKEAPRVPKGGKSNYKAPVGRIHEILKEATRPDLDLLRNSWGKLLAHLKQQNKVSHAALLNDSEPVAAGSAAFVLKFKYEIHCKMVAEDNNGVRTNLEQILESMLGKRMDLIGVPEAQWGKIREEFLEDHQQENEGSNEPAEEDPLIAEAKKLVGADLIEIKD

Experiments:
[1] = target: τ (Escherichia coli) (UniProt P06710); conditions: cited from earlier work
τ (Escherichia coli), sequence (P06710 2-643): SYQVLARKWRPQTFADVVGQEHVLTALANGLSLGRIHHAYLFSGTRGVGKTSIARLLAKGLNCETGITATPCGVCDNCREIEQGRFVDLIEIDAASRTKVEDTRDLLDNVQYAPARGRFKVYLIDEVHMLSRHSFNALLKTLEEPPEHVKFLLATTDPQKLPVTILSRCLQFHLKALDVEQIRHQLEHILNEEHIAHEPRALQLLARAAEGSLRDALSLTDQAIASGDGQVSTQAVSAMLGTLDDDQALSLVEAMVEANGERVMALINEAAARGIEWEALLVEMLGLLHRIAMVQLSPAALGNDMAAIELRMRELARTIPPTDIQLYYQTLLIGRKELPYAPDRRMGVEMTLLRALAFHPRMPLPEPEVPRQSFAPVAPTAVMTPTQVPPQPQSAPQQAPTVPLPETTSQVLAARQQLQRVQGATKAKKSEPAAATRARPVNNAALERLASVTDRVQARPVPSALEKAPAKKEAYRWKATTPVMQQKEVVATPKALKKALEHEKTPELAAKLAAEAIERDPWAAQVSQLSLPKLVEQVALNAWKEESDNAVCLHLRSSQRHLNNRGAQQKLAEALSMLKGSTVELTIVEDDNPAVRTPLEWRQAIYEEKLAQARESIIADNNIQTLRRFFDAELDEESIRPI

[2] = target: τ domain III, B. subtilis (B. subtilis); experiment: SEC
[3] = target: B2; experiment: SPR
[4] = target: the molecule itself; experiment: atomic force microscopy

For DnaB (from UniProt P0ACB0), the Kd [1] is listed as 4 nM.

With “τ domain III, B. subtilis (domain or fragment)” the stoichiometry N [2] was 2.

B1: His-tagged DnaB, Bacillus stearothermophilus (enzyme, UniProt Q9X4C9 1-454, looked up)
chain: MSELFSERIPPQSIEAEQAVLGAVFLDPAALVPASEILIPEDFYRAAHQKIFHAMLRVADRGEPVDLVTVTAELAASEQLEEIGGVSYLSELADAVPTAANVEYYARIVEEKSVLRRLIRTATSIAQDGYTREDEIDVLLDEADRKIMEVSQRKHSGAFKNIKDILVQTYDNIEMLHNRDGEITGIPTGFTELDRMTSGFQRSDLIIVAARPSVGKTAFALNIAQNVATKTNENVAIFSLEMSAQQLVMRMLCAEGNINAQNLRTGKLTPEDWGKLTMAMGSLSNAGIYIDDTPSIRVSDIRAKCRRLKQESGLGMIVIDYLQLIQGSGRSKENRQQEVSEISRSLKALARELEVPVIALSQLSRSVEQRQDKRPMMSDIRESGSIEQDADIVAFLYRDDYYNKDSENKNIIEIIIAKQRNGPVGTVQLAFIKEYNKFVNLERRFDEAQIPPGA
B1 showed a Kd [3] of 2.3 nM.

B2: binds [4].
